The values that follow come from patent US20190271710A1 (Janssen / Centocor, published 2019).

Experiment [1] has as its target T1, calibrant peptide pT3xpT82 (N-terminal acetyl; dPEG4 linker between the two segments; two phosphothreonines (pT) in GSRSR(pT)PSLP(pT)PPTREPKKV; C-terminal amide).
T1 construct: Molecular weight 4551 g/mol
T1 peptide: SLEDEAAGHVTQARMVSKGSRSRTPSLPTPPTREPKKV
The experiment in a line: Simoa pT3xpT82 sandwich assay, calibrant titrated 30 to 0.041 pg/ml. As to the method:
(§1) The calibrant peptides were reconstituted to 5 mg/ml in 0.1% phosphoric acid/water, aliquoted to 20 ul and frozen. When ready for use, the calibrant peptide aliquots were thawed and diluted 1:1000 (e.g. 1.5 ul into 1498.5 ul), and the dilutions were diluted […] so that the final concentration of the peptides was 5000 pg/ml. A standard curve with 3× jumps was made, starting at 30 pg/ml.
(§2) Calibrant peptides described in Example 1 were produced. The calibrant peptides contained the core epitopes of pT3 and hT43, or pT3 and pT82 separated by PEG4 linkers, and they were used to generate standard curves. Calibrant peptides were titrated from 30 pg/ml to 0.041 pg/ml in 1:3 jumps in assay buffer and measured with the pT3xhT43 and pT3xpT82 assays. A 4-parameter curve fit data reduction method (4PL, 1/y2 weighted) was used to generate the calibration curve. The lower limit of detection (LLOD) was defined as the calculated calibrant level yielding an AEB equal to the average of the zero calibrator+2.5 standard deviations (SD), including 10% coefficient of variation (CV). With these criteria, the representative data yielded an LLOD of 0.002 pg/ml. The Linear Range of the assay, lower limit of quantification (LLOQ) and upper limit of quantification (ULOQ), was defined as the lowest and highest standard curve points achieving CV<20% and recovery 80-120% of expected. […]

For experiment [2], the target named is T2, calibrant peptide pT3xhT43 (two phosphothreonines (pT) in GSRSR(pT)PSLP(pT)PPTREPKKV; dPEG4 linkers between the three segments; C-terminal amide).
T2 construct: Molecular weight 6893 g/mol
T2 peptide: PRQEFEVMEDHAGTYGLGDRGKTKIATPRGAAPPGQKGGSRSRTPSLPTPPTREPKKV
The experiment in a line: Simoa pT3xhT43 sandwich assay, calibrant titrated 30 to 0.041 pg/ml. On the procedure: as §1, §2

B1: pT82 mAb (antibody, V domains shown)
VH: EVKLEESGGGLVQPGGSMKLSCVASGFTFSNYWMNWIRQSPEKGLEWVAQIRLQSDNYATRYAESVKGRFTISRDESKTSVYLQMNNLRTEDTGIYYCTGGTTYWGQGTLVTVSA
VL: DIVMTQSQKFMSTSVGDRVSITCKASQNVGTAVAWYQQKPGQSPKLLIYSASIRYTGVPDRFTGSGSGTDFTLTINYMQSEDLADYFCQQFSSYPYTFGGGTKLEIK
notes: The majority assignment is used
As to B1, the binding result in experiment [1] is “binds”.

B2: pT3 mouse monoclonal antibody (antibody, V domains shown)
VH: EVKLVESGGDLVKPGGSLKLSCAASGFTFSSYAMSWVRQNPEKRLEWVASISKGGNTYYPNSVKGRFTISRDNARNILYLQMSSLRSEDTALYYCARGWGDYGWFAYWGQVTLVTVSA
VL: DIKMTQSPSSMYASLGERVTITCKASQDINRYLNWFQQKPGKSPKTLIYRANRLLDGVPSRFSGSGSGQDYSLTISSLDYEDMGIYYCLQYDEFPLTFGDGTKLELK
notes: Parental mouse mAb expressed by a mouse hybridoma; Used on capture beads, and as soluble antibody in spiking experiments; also called pT3 mAb
For B2, the binding result in experiment [2] is reported as “binds”.
